± gives the standard deviation.
Experiment: protein stability index of a GFP-peptide fusion (GPS, HEK-293T) (PSI 1-6); higher = more stable
[1] = treatment: DMSO, c terminus: a fixed tail appended
[2] = treatment: MLN4924 1 uM, 8 h, c terminus: a fixed tail appended
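Also: 24-mer peptide tiles fused after GFP, lentivirally expressed, FACS-sorted into six equal bins by GFP/DsRed ratio, decoded by Illumina sequencing, PSI is the read-weighted mean bin number.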

| Sequence | protein stability index [1] | protein stability index [2] | protein stability index (treatment: DMSO, c terminus: native) | protein stability index (treatment: MLN4924 1 uM, 8 h, c terminus: native) |
| --- | --- | --- | --- | --- |
| AVINWVKHAKKEREESLPNLLQYV [KLHL12] | 2.02 ± 0.32 | 2.49 ± 0.54 |  |  |
| SRGTSQTPNASSPGNPTALANGTV [LPCAT4] | 4.73 ± 0.051 | 4.77 ± 0.068 |  |  |
| APLSSRKHVLYVEHRHLNPDTELK [TCF25] | 3.72 ± 0.35 | 3.87 ± 0.51 |  |  |
| DTLRRRLLAPEAGSHPQQTQKLEE [TOR1AIP2] | 5.35 ± 0.3 | 5.41 ± 0.15 |  |  |
| VEISRRLRHSNPRADPLVCATGLL [SPNS1] | 2.22 ± 0.11 | 2.31 ± 0.32 |  |  |
| SGPMQAALQAAAHASVDIKDVLDF [SMG5] | 4.42 ± 0.17 | 4.18 ± 0.1 |  |  |
| FTAALEHCRENAHDKIRPISSIGQ [SPACA9] | 3.3 ± 0.088 | 3.41 ± 0.25 |  |  |
| RQLALPATEQAATQESTFQELCEG [NOP53] | 5.12 ± 0.16 | 5.22 ± 0.21 |  |  |
| HVTDPLIGCKKPVSASGKEMDWAQ [SMG5] | 3.78 ± 0.18 | 4.04 ± 0.24 |  |  |
| PATTVTSPNSTPAKTIDTSPPVDL [SNAP91] | 5.25 ± 0.23 | 5.25 ± 0.19 |  |  |
| LSDLEDLEEEEEEEEEAEDEEVVA [IRX6] | 5.63 ± 0.23 | 5.81 ± 0.077 |  |  |
| FRRSLHDPDGLVATYISEVHEHDG [APMAP] | 4.02 ± 0.28 | 4.01 ± 0.3 |  |  |
| IDCKFNAESQGCNHEEDAGVRCNT [LOXL2] | 5.13 ± 0.22 | 5.22 ± 0.1 |  |  |
| LKVGGILVMPIEDQLTQIMRTGQN [PCMTD1] | 2.66 ± 0.12 | 2.24 ± 0.22 |  |  |
| TEYIESPDVENEVKRLLRSDAEAV [TAF7L] | 4.97 ± 0.33 | 5.03 ± 0.22 |  |  |
| KKVYLTGFALDILFAIANGFSPSY [SLC22A15] | 2.68 ± 0.28 | 3.42 ± 0.22 |  |  |
| SLFCYEDQEAVCLICAISHTHRAH [TRIM39] | 2.15 ± 0.19 | 2.19 ± 0.2 |  |  |
| EVLKVQTHLENPTRYHLQQARRQQ [TFE3] | 3.77 ± 0.23 | 3.91 ± 0.33 |  |  |
| EPPPPGKHSNKKVMRTKSSEKAAN [CPXM2] | 5.09 ± 0.23 | 5.14 ± 0.81 |  |  |
| TVGCSSQHTPDQANSDRASIGRRR [PLEKHN1] | 5.04 ± 0.36 | 5.02 ± 0.15 |  |  |
| LGKLEATIKSLSAELLKANEIIKK [SASS6] | 2.44 ± 0.34 | 2.68 ± 0.16 |  |  |
| CHSCQLYLPSTEFSVSSTSRRIYR [IQUB] | 2.45 ± 0.15 | 2.73 ± 0.54 |  |  |

| Sequence | protein stability index [1] | protein stability index [2] | protein stability index (treatment: DMSO, c terminus: native) | protein stability index (treatment: MLN4924 1 uM, 8 h, c terminus: native) |
| --- | --- | --- | --- | --- |
| KKKAIQEEEERDQALQAKASLTIP [YJU2B] | 5.27 ± 0.22 | 5.4 ± 0.21 |  |  |
| LHPRPDWEHSAPQRLPRSAPPGSL [PCDHGC5] | 4.78 ± 0.19 | 4.75 ± 0.17 |  |  |
| PASPERDYSPYYKTIEELRDKILT [KRT13] | 3.349 ± 0.006 | 3.45 ± 0.31 |  |  |
| HRRRSRERGPYRTRKHAHHCHKRR [CLK3] | 4.49 ± 0.31 | 4.57 ± 0.25 |  |  |
| EEAEAGEEAVPEEEGPTVVLNPHP [CHGA] | 5.59 ± 0.14 | 5.44 ± 0.28 |  |  |
| YILDNETNFVVQVSVFIGVLIDLW [CLPTM1] | 2.74 ± 0.77 | 2.59 ± 0.7 |  |  |
| GPLPQSFDKEWVAKQTKRMLDMKV [COX4I1] | 3.86 ± 0.15 | 3.86 ± 0.31 |  |  |
| GKKEIKPFKRFLRKKSKPKKCVKK [SMOC2] | 3.1 ± 0.25 |  |  |  |
| KDILGFAVMFFIVFFAYAQLGYLL [PKD2L1] | 2.81 ± 0.42 | 2.93 ± 0.54 |  |  |
| QAKTHTDSSEKELEPEAAEEALEN [ACBD3] | 5.52 ± 0.2 | 5.65 ± 0.24 |  |  |
| NRLASLQQENKVLKIELETYKLKC [CCDC6] | 2.89 ± 0.28 | 3.23 ± 0.21 |  |  |
| PEGSVSGSQPNSGLALESSSGLQD [NFE2L1] | 5.46 ± 0.2 | 5.51 ± 0.13 |  |  |
| PYLRFGCLSCRLFYFKLTDLYKKV [CRY1] | 2.55 ± 0.45 | 2.32 ± 0.38 |  |  |
| GKSVSSSSSVETGPSVSEPPGLPR [SPATS1] | 5.08 ± 0.18 | 5.11 ± 0.067 |  |  |
| ESLVPFIVNDNITNNFFRFLCMT [DYNC2LI1] |  |  | 3.91 ± 0.45 | 2.63 ± 0.67 |
| QERPRPEPGRLGSSSPASVTTEQL [PXN] | 5.29 ± 0.3 | 5.12 ± 0.39 |  |  |
| MERTGGIGDSRPPSFHPHAGGGSQ [DVL3] | 4.5 ± 0.18 | 4.69 ± 0.16 |  |  |
| GCWAWPLAGLSVGRSSLTACSLPL [PXN] | 1.99 ± 0.86 | 2.15 ± 0.82 |  |  |
| ELGQAVEVIYPQHSKLTDREKTNI [DENND6A] | 3.69 ± 0.35 | 4.28 ± 0.21 |  |  |
| ILKRLLKEQHLWDVDLLDSKVIEI [DLC1] | 2.44 ± 1 | 2.02 ± 0.68 |  |  |
| YPPFWDEDQHKLYQQIKAGAYDFP [CAMK2B] | 2.85 ± 0.35 | 3.11 ± 0.056 |  |  |
| PLLKLACTNTYVTGLSMIANGGAI [OR4A15] | 2.15 ± 0.58 | 2.21 ± 0.72 |  |  |

| Sequence | protein stability index [1] | protein stability index [2] | protein stability index (treatment: DMSO, c terminus: native) | protein stability index (treatment: MLN4924 1 uM, 8 h, c terminus: native) |
| --- | --- | --- | --- | --- |
| YGYLPEDKVLGTFEFDETSFWNSS [KLHDC2] | 2.66 ± 0.25 | 2.98 ± 0.34 |  |  |
| IRLCDMRASALCDRHTKFFEEPED [PPP2R2B] | 3.59 ± 0.11 | 3.77 ± 0.2 |  |  |
| QDDISSSYTTTTTITAPPSRVLQN [SCD] | 4.71 ± 0.3 | 4.89 ± 0.3 |  |  |
| ILQLEECCTHNNSATLSWKQPPLS [TRIM9] | 2.67 ± 0.42 | 2.78 ± 0.23 |  |  |
| PLSDDHDEKYGVPSLEELGFDTDG [CRY1] | 5.58 ± 0.18 | 5.62 ± 0.18 |  |  |
| SRFSSSTEQSSASRLMRRHKRRRR [DVL3] | 5.17 ± 0.084 | 5.257 ± 0.022 |  |  |
| DKVRALEEANADLEVKIRDWYQRQ [KRT16] | 4.01 ± 0.11 | 4.04 ± 0.27 |  |  |
| GKWPQVLFFPEGTCSNKKALLKFK [LPCAT4] | 2.52 ± 0.31 | 2.57 ± 0.45 |  |  |
| LEKWMQKNVEENLYSSSLGGGVAT [GLT8D2] | 3.44 ± 0.2 | 3.69 ± 0.26 |  |  |
| SNSQPTNESHSIKAILKNISVLAF [SLC29A1] | 2.45 ± 0.46 | 2.43 ± 0.29 |  |  |
| KEAVAALPPDVTTQSVMGFDPLPP [TCF25] | 4.79 ± 0.29 | 4.89 ± 0.26 |  |  |
| ANHVFFLLYLLHILLLDGAAWLTL [FADS1] | 3.23 ± 0.61 | 3.39 ± 0.6 |  |  |
| SYGGGSASSQHSEGSRSSGSNRSG [DVL3] | 5.23 ± 0.081 | 5.16 ± 0.29 |  |  |
| TNTRSDLDVFGRGDNISDVSKFLE [LUC7L3] | 4.67 ± 0.16 | 4.76 ± 0.19 |  |  |
| TSQEIFRQRFRHLRYQETPGPREA [ZNF232] | 3.63 ± 0.36 | 3.6 ± 0.28 |  |  |
| LLDATVAGGQTRLQASDRYRDLAG [FCHSD1] | 3.99 ± 0.14 | 3.86 ± 0.12 |  |  |
| AAARPSSCRRKQEDDRDGLLAERE [TMEM106C] | 5.18 ± 0.25 | 5.3 ± 0.34 |  |  |
| DAIRGKVGYTRGLHVWQITWAMRQ [SPSB1] | 2.38 ± 0.54 | 2.36 ± 0.42 |  |  |
| GAFYRRAQRLRPQDEPRQGCQPED [KCNG1] | 5.21 ± 0.18 | 5.11 ± 0.11 |  |  |
| TLAALLLNRSESDIRYLLGYVSQQ [FEM1B] | 2.39 ± 0.42 | 2.52 ± 0.61 |  |  |
| MSQRNLNAKTEQGPTGVTMTSNPI [CDK11A] | 4.53 ± 0.23 | 4.64 ± 0.17 |  |  |
